Measurements from patent publication US9969998B2, “Compositions of adenosine deaminase-2 (ADA2), variants thereof and methods of using same” (Halozyme, Inc., priority 2014, dated 2018).

Tests used:
[1] = mouse, in vivo, iv, 3 mg/kg
From the text: (§1) Twenty-seven (27) male BALB/c mice were divided into three (3) dosing groups, and were further divided into three (3) groups each for sampling of blood at different time points. Thus, the mice were randomized into nine (9) groups total. Mice were weighed prior to the start of the study, and randomized into the 9 groups based upon their body weights. In each sampling group, three groups of (3) mice were used for dosing each test article to prevent oversampling of the blood from the animals. For measurement of baseline ADA2 levels, a blood sample was obtained from 12 randomly chosen mice and plasma was prepared using the anti-coagulant potassium (K3) ethylene diamine tetraacetic acid (K3-EDTA). All blood was collected by submandibular venipuncture.
(§2) PEGylated ADA2 variants were prepared using the PEGylation method as described in Example 8.A, with minor modifications. Briefly, all ADA2 variants at 10 mg/mL were PEGylated with linear PEG-20K (JenKem Technology, Plano, Tex.; Cat. No. M-SCM-20K) at 1:15 molar ratio and incubated first at 37° for 30 min, then at 4° C. for 16 hours.
(§3) Approximately 200 μL of whole blood was collected at designated sampling time points from appropriate groups of mice as indicated below in Table 38 and kept on ice until plasma preparation. The initial two (2) blood samples were collected by submandibular venipuncture. The final sample was collected from a terminal bleed. Plasma was prepared by centrifuging the blood (500×g for 5 min at 4° C.), transferring the plasma to a fresh tube and immediately freezing at −80° C. until the adenosine deaminase activity assay. Adenosine deaminase activity was determined as described in Example 4.
(§4) Non-compartmental analysis (NCA) was conducted using the Phoenix WinNonlin version 6.3 (Pharsight Corp, St. Louis, Mo. 63101). The half-life, or time taken for the activity of ADA2 proteins to be reduced by half, was calculated. Also, total exposure was measured by calculating the Area Under the Concentration-time Curve (AUC). The AUC and half-life values were obtained from the unweighted average from each test article group. The following options in the Phoenix WinNonlin program were used for data analysis: (i) linear trapezoidal/linear interpolation option for AUC; (ii) best-fit slope selection option for terminal slope; and (iii) uniform weighting of the data.

[2] = system: MH194+PSC4 pancreatic tumor; assay: Tumor growth inhibition and survival, MH194+PSC4 syngeneic tumor model; format: in vivo, C57BL/6 mice; details: for Tumor Growth Inhibition: vs vehicle; for Increase in MST: vs vehicle (MST 27 days)
Experimental: The murine MH194+PSC4 syngeneic tumor model was used to assess the antitumor efficacy of PEGylated a recombinant adenosine deaminase 2 (ADA2), PEGylated rHuADA2-R222Q/S265N (PEG-R222Q/S265N; PEG-R219Q/S262N by mature numbering).
The PSC4 cells are isolated and immortalized pancreatic stellate cells. To generate the PSC4 cells, pancreas from C57BL/6 mice were minced with razor blades and placed in 2 mL of a digestion buffer containing 0.05% collagenase P, 0.1% DNAse, and 0.02% Pronase in Gey's balanced salt solution (GBSS). Following two 15 min digestion incubations at 37° C. with thorough mixing after each incubation, the resulting cell suspension was filtered through a 100 μm nylon mesh, washed twice in GBSS with 0.3% bovine serum albumin (BSA), and resuspended in 10 mL GBSS/BSA. Eight mL of Histodenz (Sigma, Cat. No. D2158) was added to the cell suspension, and the entire volume was pipetted under 6 mL GBSS/BSA in order to generate a discontinuous density gradient. Following centrifugation for 20 min at 1,400 g with the brake set at zero, the desired cells were harvested from the interface between the two density volumes and washed once with PBS and once with DMEM medium supplemented with 2 mM L-glutamine, 10% fetal bovine serum, and 1% amphotericin-B (complete DMEM). Cells were immortalized using Lenti-SV40 (Capital Biosciences, Cat. No. CIP-0011) using manufacturer's protocol. The resulting cell line, designated PSC4, were maintained in tissue culture as an adherent monolayer in complete DMEM at 37° C. and 5% CO2. The MH194 mouse pancreatic carcinoma cells are derived from the KrasLSL.G12D/+p53R172H/+PdxCretg/+ genetically engineered mouse model. […]
Thirty-nine (39) male C57BL/6 mice were co-inoculated subcutaneously with 5×10^6 of a mixture of murine MH194 pancreatic cancer tumor cells and murine PSC4 pancreatic stellate cells in 0.1 mL injection volume per animal. Tumor volume was determined using digital calipers via measurement of length (L) and width (W) of the solid tumor masses. Tumor volume (TV) was calculated as: (L×W^2)/2. Tumors were allowed to grow and tumor bearing mice were staged for test article administration when the tumors were palpable and measured to be approximately 50-100 mm^3.
PEG-R222Q/S265N was prepared using similar methods as described in Example 8.A, with minor modifications to generate a preparation in which approximately 100% of the molecules were PEGylated as assessed by SDS-PAGE.
For treatment, MH194+PSC4 tumor bearing mice were randomized into five treatment groups (n=≤8); vehicle control (buffer only) or PEG-R222Q/S265N at four treatment doses. MH194+PSC4 tumor bearing mice were then injected intravenously (IV) every other day, at 0.003 mg/kg body weight, 0.03 mg/kg body weight, 0.3 mg/kg body weight and 3 mg/kg body weight of PEG-R222Q/S265N, or vehicle. […] Median survival time (MST) (in days) was calculated as the time at which 50% of the mice of the individual groups reached one of the following endpoints: (1) tumor volume reaches 2000 mm^3, (2) the animal loses >25% of its body weight, or (3) the animal appears moribund.

[3] = In vivo pharmacokinetics of PEGylated rHuADA2 combination variants (Example 14); details: 3 mg/kg intravenous
From the text: as §1, §2, §3, §4

[4] = Heparin binding ELISA (immobilized heparin); details: Example 8
Experimental: Heparin binding of a protein, such as any ADA2 provided herein, can also be assessed using enzyme-linked immunosorbant assay (ELISA) based methods. ELISA-based methods use heparin immobilized on a surface, such as a microtiter plate. The protein of interest which binds to heparin, such as any ADA2 provided herein, is incubated in the heparin coated plate, and binding is detected using antibodies that detect the protein of interest, such as any ADA2 provided herein.
For example, a 96-well plate coated with 100 μL of 200 μg/mL heparin sodium salt (Calibochem, EMD Milipore, Billerica, Mass.; Cat. No. 375095) in Na2CO3 buffer (pH 9.6) can be used to test ADA2 binding to heparin. […] The optical density (OD) of each reaction is measured on a plate reader.
In another example, heparin is immobilized by incubating Streptavidin-coated microtiter plates, such as the Streptavidin-coated 96-well plate (Thermo Fisher Scientific, Rockford, Ill.; Cat. No. 15520), with biotinylated heparin, such as biotin-heparin (Sigma-Aldrich, St. Louis, Mo.; Cat No. B9806-10MG). […] The optical density (OD) of each reaction is measured on a plate reader. […]

[5] = 0.003 mg/kg IV every other day, day 11
[6] = 0.03 mg/kg IV every other day, day 11
[7] = 0.3 mg/kg IV every other day, day 11
[8] = 3 mg/kg IV every other day, day 11
[9] = day 11, 0.003 mg/kg IV every other day
[10] = male BALB/c mice, WT from Example 9

B1: PEG-R222Q/S265N: rHuADA2-R222Q/S265N (SEQ ID NO:273) PEGylated with linear PEG-20K (conjugate)
chain: IDETRAHLLLKEKMMRLGGRLVLNTKEELANERLMTLKIAEMKEAMRTLIFPPSMHFFQAKHLIERSQVFNILRMMPKGAALHLHDIGIVTMDWLVRNVTYRPHCHICFTPRGIMQFRFAHPTPRPSEKCSKWILLEDYRKRVQNVTEFDDSLLRNFTLVTQHPEVIYTNQNVVWSKFETIFFTISGLIHYAPVFRDYVFRSMQEFYEDNVLYMEIRAQLLPVYELSGEHHDEEWSVKTYQEVAQKFVETHPEFIGIKIIYNDHRSKDVAVIAESIRMAMGLRIKFPTVVAGFDLVGHEDTGHSLHDYKEALMIPAKDGVKLPYFFHAGETDWQGTSIDRNILDALMLNTTRIGHGFALSKHPAVRTYSWKKDIPIEVCPISNQVLKLVSDLRNHPVATLMATGHPMVISSDDPAMFGAKGLSYDFYEVFMGIGGMKADLRTLKQLAMNSIKYSTLLESEKNTFMEIWKKRWDKFIADVATK
modifications: linear PEG-20K; human ADA2 R219Q/S262N, mature numbering
[1]
  Half-life slow (t1/2): 2,790 min
  Percent increase in t1/2 compared to WT ADA2: 4,043%
[2]; 0.003 mg/kg IV every other day
  MST (median survival time): 46 days
  Increase in MST: 70%
[2]; [5]
  Average Tumor Volume: 323.9 mm^3
  Tumor Growth Inhibition: 72%
[2]; 0.003 mg/kg dose
  median survival time (MST): 46 days
  mice that survived beyond 41 days: Five out of eight
[2]; 0.03 mg/kg IV every other day
  MST (median survival time): 26 days
  Increase in MST: 0%
[2]; [6]
  Average Tumor Volume: 680.45 mm^3
  Tumor Growth Inhibition: 21%
[2]; 0.3 mg/kg IV every other day
  MST (median survival time): 32.5 days
  Survival time: 13 to 41 days
  Increase in MST: 20%
[2]; [7]
  Average Tumor Volume: 700.59 mm^3
  Tumor Growth Inhibition: 20%
[2]; 3 mg/kg IV every other day
  MST (median survival time): 23.5 days
  Increase in MST: 0%
[2]; [8]
  Average Tumor Volume: 678.58 mm^3
  Tumor Growth Inhibition: 22%
[2]; [9]
  Average Tumor Volume: approximately 324 mm^3
  tumor growth inhibition (TGI): approximately 72%
[3]; BALB/c mice, plasma ADA activity
  AUC (total exposure): 16,330 (U * h)/mL
[3]; BALB/c mice, vs non-PEGylated WT rHuADA2 of Example 9
  Percent increase in AUC compared to WT ADA2: 49,661%
[3]; [10]
  AUC higher than the non-PEGylated WT rHuADA2: 49661%
  half-life longer than the non-PEGylated WT rHuADA2: 4043%

B2: PEGylated ADA2: ADA2 conjugate that is a PEGylated ADA2 (conjugate, UniProt Q9NZK5 30-511, looked up)
Adenosine deaminase 2: IDETRAHLLLKEKMMRLGGRLVLNTKEELANERLMTLKIAEMKEAMRTLIFPPSMHFFQAKHLIERSQVFNILRMMPKGAALHLHDIGIVTMDWLVRNVTYRPHCHICFTPRGIMQFRFAHPTPRPSEKCSKWILLEDYRKRVQNVTEFDDSLLRNFTLVTQHPEVIYTNQNVVWSKFETIFFTISGLIHYAPVFRDYVFRSMQEFYEDNVLYMEIRARLLPVYELSGEHHDEEWSVKTYQEVAQKFVETHPEFIGIKIIYSDHRSKDVAVIAESIRMAMGLRIKFPTVVAGFDLVGHEDTGHSLHDYKEALMIPAKDGVKLPYFFHAGETDWQGTSIDRNILDALMLNTTRIGHGFALSKHPAVRTYSWKKDIPIEVCPISNQVLKLVSDLRNHPVATLMATGHPMVISSDDPAMFGAKGLSYDFYEVFMGIGGMKADLRTLKQLAMNSIKYSTLLESEKNTFMEIWKKRWDKFIADVATK
modifications: PEG
[4]
  heparin binding compared to the corresponding non-PEGylated ADA2: reduced heparin binding
